Results published in PMC6314159.

Target: TP53 (Homo sapiens) (UniProt P04637)
Test: EMSA-seq

Sequence of TP53 (Homo sapiens) (P04637 whole entry): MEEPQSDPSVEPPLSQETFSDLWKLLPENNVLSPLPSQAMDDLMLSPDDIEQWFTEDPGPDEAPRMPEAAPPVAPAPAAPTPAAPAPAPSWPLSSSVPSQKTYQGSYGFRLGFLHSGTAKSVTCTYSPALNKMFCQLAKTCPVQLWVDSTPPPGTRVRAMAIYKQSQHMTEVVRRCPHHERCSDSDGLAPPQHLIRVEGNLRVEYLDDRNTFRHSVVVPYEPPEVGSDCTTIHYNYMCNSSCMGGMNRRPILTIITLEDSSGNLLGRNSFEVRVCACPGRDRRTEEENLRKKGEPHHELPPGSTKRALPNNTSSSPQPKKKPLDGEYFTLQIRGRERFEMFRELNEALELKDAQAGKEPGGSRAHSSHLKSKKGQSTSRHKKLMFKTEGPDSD

## GATGGACCCTATACGCGGCCGCCCTGGAGAATCCCGGTGCCGAGGCCGCTCAATTGGTCGTAGACAGCTCTAGCACCGCTTAAACGCACGTACGCGCTGTCCCCCGCGTTTTAACCGCCAAGGGGATTACTCCCTAGTCTCCAGGCACGTGTCAGATATATACATCCTGTGCGGGCATGTCCGGGCATGTCCGCCGGTGCCAGTCGGATAGTGTTCC (double strand) [High SHL 8 nucleosome (linker)]
  Kd: 19 nM
